Numbering of substitutions follows the chain as printed.
B1: CD33 antibody JL3 combined with Vdelta2 antibody 5D3 (JL3x5D3), Fab (CD33) x VHH (Vδ2) Fc construct (bispecific antibody, human IgG1, lambda, L234A L235A)
heavy: QVQLQESGPGLVKPSETLSLTCSVSGGSIRNYYWSWIRQSAGKELEWFGHIFSTGHINYDSSLKSRVTMSVDTSNNQFSLKLRSVTAADTAVYYCARDNGAALFDFWGQGTLVTVSSASTKGPSVFPLAPSSKSTSGGTAALGCLVKDYFPEPVTVSWNSGALTSGVHTFPAVLQSSGLYSLSSVVTVPSSSLGTQTYICNVNHKPSNTKVDKKVEPKSCDKTHTCPPCPAPEAAGGPSVFLFPPKPKDTLMISRTPEVTCVVVSVSHEDPEVKFNWYVDGVEVHNAKTKPREEQYNSTYRVVSVLTVLHQDWLNGKEYKCKVSNKALPAPIEKTISKAKGQPREPQVYTLPPSREEMTKNQVSLSCAVKGFYPSDIAVEWESNGQPENNYKTTPPVLDSDGSFFLVSKLTVDKSRWQQGNVFSCSVMHEALHNRFTQKSLSLSPGK
light: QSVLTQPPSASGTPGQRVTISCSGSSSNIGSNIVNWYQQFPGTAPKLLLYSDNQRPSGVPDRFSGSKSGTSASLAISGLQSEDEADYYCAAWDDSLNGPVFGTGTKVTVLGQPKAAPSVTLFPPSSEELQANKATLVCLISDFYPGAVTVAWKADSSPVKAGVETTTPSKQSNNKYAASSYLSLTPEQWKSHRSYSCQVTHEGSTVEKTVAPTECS
chain: EVQLVESGGGLVQAGGSLRLSCAASGRPFSNYAMGWFRQAPGKEREFVTVISWSGGSTYYADSVKGRFTISRDNAKNTVYLQMNSLKPEDTAVYYCAAQFSGASTVVAGTALDYDYWGQGTRVTVSSEPKSSDKTHTCPPCPAPEAAGGPSVFLFPPKPKDTLMISRTPEVTCVVVSVSHEDPEVKFNWYVDGVEVHNAKTKPREEQYNSTYRVVSVLTVLHQDWLNGKEYKCKVSNKALPAPIEKTISKAKGQPREPQVYTLPPSREEMTKNQVSLWCLVKGFYPSDIAVEWESNGQPENNYKTTPPVLDSDGSFFLYSKLTVDKSRWQQGNVFSCSVMHEALHNHYTQKSLSLSPGK
B2: CD33 antibody JL5 combined with Vdelta2 antibody 5D3 (JL5x5D3), Fab (CD33) x VHH (Vδ2) Fc construct (bispecific antibody, human IgG1, lambda, L234A L235A)
heavy: QVQLQESGPGLVKPSETLSLTCSVSGASIRNYYWSWIRQTAGKGLEWLGHIYSTGNIHYNPSLKSRVTMSVDTSNNQFSLKLRSVTAADTAVYYCARDNGAALFDYWGQGTLVTVSSASTKGPSVFPLAPSSKSTSGGTAALGCLVKDYFPEPVTVSWNSGALTSGVHTFPAVLQSSGLYSLSSVVTVPSSSLGTQTYICNVNHKPSNTKVDKKVEPKSCDKTHTCPPCPAPEAAGGPSVFLFPPKPKDTLYITREPEVTCVVVSVSHEDPEVKFNWYVDGVEVHNAKTKPREEQYNSTYRVVSVLTVLHQDWLNGKEYKCKVSNKALPAPIEKTISKAKGQPREPQVYTLPPSREEMTKNQVSLSCAVKGFYPSDIAVEWESNGQPENNYKTTPPVLDSDGSFFLVSKLTVDKSRWQQGNVFSCSVMHEALHNRFTQKSLSLSPGK
light: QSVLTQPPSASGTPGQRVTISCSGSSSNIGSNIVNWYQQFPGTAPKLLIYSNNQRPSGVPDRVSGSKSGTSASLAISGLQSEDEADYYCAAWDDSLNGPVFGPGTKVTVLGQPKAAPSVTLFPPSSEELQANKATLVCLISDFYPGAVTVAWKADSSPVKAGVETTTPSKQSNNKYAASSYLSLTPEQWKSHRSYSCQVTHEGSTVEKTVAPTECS
chain: B1 chain with M164Y, S166T, T168E
B3: CD33 antibody JL6 combined with Vdelta2 antibody 5D3 (JL6x5D3), Fab (CD33) x VHH (Vδ2) Fc construct (bispecific antibody, human IgG1, lambda, L234A L235A)
heavy: QVQLQESGPGLVKPSETLSLTCTVSGGSISSYYWGWIRQPPGKGLEWIGYIYYSGSTNYNPSLKSRVTISVDTSKNQFSLKLSSVTAADTAVYYCARMWEILGFDPWGQGTLVTVSSASTKGPSVFPLAPSSKSTSGGTAALGCLVKDYFPEPVTVSWNSGALTSGVHTFPAVLQSSGLYSLSSVVTVPSSSLGTQTYICNVNHKPSNTKVDKKVEPKSCDKTHTCPPCPAPEAAGGPSVFLFPPKPKDTLMISRTPEVTCVVVSVSHEDPEVKFNWYVDGVEVHNAKTKPREEQYNSTYRVVSVLTVLHQDWLNGKEYKCKVSNKALPAPIEKTISKAKGQPREPQVYTLPPSREEMTKNQVSLSCAVKGFYPSDIAVEWESNGQPENNYKTTPPVLDSDGSFFLVSKLTVDKSRWQQGNVFSCSVMHEALHNRFTQKSLSLSPGK
light: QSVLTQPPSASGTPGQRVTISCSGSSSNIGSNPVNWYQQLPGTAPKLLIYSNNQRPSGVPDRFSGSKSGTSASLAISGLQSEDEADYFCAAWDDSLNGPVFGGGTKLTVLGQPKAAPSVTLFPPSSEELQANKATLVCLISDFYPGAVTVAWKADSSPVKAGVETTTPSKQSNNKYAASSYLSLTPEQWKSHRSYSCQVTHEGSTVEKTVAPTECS
chain: B1 chain
B4: CD33 antibody JL2 combined with Vdelta2 antibody 6H4 (JL2x6H4), Fab (CD33) x VHH (Vδ2) Fc construct (bispecific antibody, human IgG1, kappa, L234A L235A)
heavy: EVQLVESGGGLVQPGGSLRLSCVVSGFTFSSYWMTWVRQAPGKGLEWVANIKQDGSERYYVDSVKGRFTISRDSAKNSLYLQMNSLRAEDTAVYYCAREVGYNWNQGGYFDYWGQGTLVTVSSASTKGPSVFPLAPSSKSTSGGTAALGCLVKDYFPEPVTVSWNSGALTSGVHTFPAVLQSSGLYSLSSVVTVPSSSLGTQTYICNVNHKPSNTKVDKKVEPKSCDKTHTCPPCPAPEAAGGPSVFLFPPKPKDTLMISRTPEVTCVVVSVSHEDPEVKFNWYVDGVEVHNAKTKPREEQYNSTYRVVSVLTVLHQDWLNGKEYKCKVSNKALPAPIEKTISKAKGQPREPQVYTLPPSREEMTKNQVSLSCAVKGFYPSDIAVEWESNGQPENNYKTTPPVLDSDGSFFLVSKLTVDKSRWQQGNVFSCSVMHEALHNRFTQKSLSLSPGK
light: DIVMTQSPLSLPVTPGEPASISCRSSQSLLHSDGYNYLDWYLQKSGQSPQLLIYLGSYRASGVPDRFSGSGSGTDFTLKISRVEAEDVGIYYCMQVLQTPWTFGQGTKVEIKRTVAAPSVFIFPPSDEQLKSGTASVVCLLNNFYPREAKVQWKVDNALQSGNSQESVTEQDSKDSTYSLSSTLTLSKADYEKHKVYACEVTHQGLSSPVTKSFNRGEC
chain: EVQLVESGGGLVQAGGSLRLSCAASGRPFSNYGMGWFRQAPGKKREFVAGISWSGGSTDYADSVKGRFTISRDNAKNTVYLQMNSLKPEDTAVYYCAAVFSGAETAYYPSDDYDYWGQGTQVTVSSEPKSSDKTHTCPPCPAPEAAGGPSVFLFPPKPKDTLMISRTPEVTCVVVSVSHEDPEVKFNWYVDGVEVHNAKTKPREEQYNSTYRVVSVLTVLHQDWLNGKEYKCKVSNKALPAPIEKTISKAKGQPREPQVYTLPPSREEMTKNQVSLWCLVKGFYPSDIAVEWESNGQPENNYKTTPPVLDSDGSFFLYSKLTVDKSRWQQGNVFSCSVMHEALHNHYTQKSLSLSPGK
B5: CD33 antibody JL3 combined with Vdelta2 antibody 6H4 (JL3x6H4), Fab (CD33) x VHH (Vδ2) Fc construct (bispecific antibody, human IgG1, lambda, L234A L235A)
heavy: B1 heavy
light: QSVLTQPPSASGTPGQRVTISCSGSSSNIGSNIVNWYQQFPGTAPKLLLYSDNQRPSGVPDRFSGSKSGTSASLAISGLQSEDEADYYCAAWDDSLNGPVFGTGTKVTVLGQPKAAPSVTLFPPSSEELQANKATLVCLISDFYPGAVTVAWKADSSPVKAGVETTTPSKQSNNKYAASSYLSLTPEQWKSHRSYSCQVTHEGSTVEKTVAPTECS
chain: B4 chain
B6: CD33 antibody JL6 combined with Vdelta2 antibody 6H4 (JL6x6H4), Fab (CD33) x VHH (Vδ2) Fc construct (bispecific antibody, human IgG1, lambda, L234A L235A)
heavy: B3 heavy
light: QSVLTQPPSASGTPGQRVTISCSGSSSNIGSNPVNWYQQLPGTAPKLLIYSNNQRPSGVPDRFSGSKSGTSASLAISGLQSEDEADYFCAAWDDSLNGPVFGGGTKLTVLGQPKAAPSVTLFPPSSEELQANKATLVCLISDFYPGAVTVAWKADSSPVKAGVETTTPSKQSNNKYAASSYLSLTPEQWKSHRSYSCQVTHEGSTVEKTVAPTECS
chain: B4 chain
B7: CD33 antibody JL5 combined with Vdelta2 antibody 6H4 (JL5x6H4), Fab (CD33) x VHH (Vδ2) Fc construct (bispecific antibody, human IgG1, lambda, L234A L235A)
heavy: B2 heavy
light: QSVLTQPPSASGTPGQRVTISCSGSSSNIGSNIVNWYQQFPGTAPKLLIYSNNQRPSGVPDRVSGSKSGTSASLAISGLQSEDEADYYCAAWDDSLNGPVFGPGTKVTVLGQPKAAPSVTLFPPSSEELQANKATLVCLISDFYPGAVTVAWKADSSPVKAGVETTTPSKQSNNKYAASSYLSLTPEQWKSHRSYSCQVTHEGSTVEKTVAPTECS
chain: B4 chain with M163Y, S165T, T167E
B8: CD33 antibody JL2 combined with Vdelta2 antibody 5D3 (JL2x5D3), Fab (CD33) x VHH (Vδ2) Fc construct (bispecific antibody, human IgG1, kappa, L234A L235A)
heavy: B4 heavy
light: B4 light
chain: B1 chain

These binders were tested against human CD33 on CD33-expressing THP-1 cells (human, UniProt P20138 18-364) (assay: cell-based or functional assay).
Sequence of human CD33 on CD33-expressing THP-1 cells (P20138 18-364): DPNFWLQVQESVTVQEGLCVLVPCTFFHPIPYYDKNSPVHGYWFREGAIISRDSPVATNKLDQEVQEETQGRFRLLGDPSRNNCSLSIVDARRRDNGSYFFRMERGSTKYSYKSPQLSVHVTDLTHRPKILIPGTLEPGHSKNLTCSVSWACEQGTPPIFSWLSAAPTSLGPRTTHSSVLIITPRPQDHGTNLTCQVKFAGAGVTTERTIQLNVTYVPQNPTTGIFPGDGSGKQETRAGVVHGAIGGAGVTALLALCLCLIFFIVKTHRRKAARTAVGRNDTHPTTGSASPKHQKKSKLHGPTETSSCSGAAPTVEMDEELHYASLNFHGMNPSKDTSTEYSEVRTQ

First: B1
Second: B2
The “Cytotox EC50 (pM) E:T 1:1 - 22 hrs” value of the first is higher: 15 pM for the first, 12 pM for the second.

Going from B3 to B4, the “Cytotox EC50 (pM) E:T 1:1 - 22 hrs” value falls from 63 pM to 4 pM.

Going from B5 to B6, the “Cytotox EC50 (pM) E:T 1:1 - 22 hrs” value rises from 2.5 pM to 6.2 pM.

Compared with B7, B8 is higher in “Cytotox EC50 (pM) E:T 1:1 - 22 hrs” value: 5.4 pM for the first, 28 pM for the second.

Going from B1 to B2, the “Cytotox EC50 (pM) E:T 1:20 - 94 hrs” value falls from 77 pM to 45 pM.

First: B3
Second: B4
The “Cytotox EC50 (pM) E:T 1:20 - 94 hrs” value of the first is higher: about 560 pM for the first, 20 pM for the second.

First: B5
Second: B6
The “Cytotox EC50 (pM) E:T 1:20 - 94 hrs” value of the first is lower: 12 pM for the first, 30 pM for the second.

First: B7
Second: B8
The “Cytotox EC50 (pM) E:T 1:20 - 94 hrs” value of the first is lower: 15 pM for the first, about 380 pM for the second.

Source: patent US20240409634A1 (Janssen / Centocor, published 2024)
